Measurements: US20250179197A1 (DIAGONAL THERAPEUTICS, published 2025)

T1: IL-18 receptor (IL-18Rα/IL-18Rβ) on human PBMCs (human, UniProt Q13478 19-541; O95256 20-599)
T1 sequence (looked up) 1: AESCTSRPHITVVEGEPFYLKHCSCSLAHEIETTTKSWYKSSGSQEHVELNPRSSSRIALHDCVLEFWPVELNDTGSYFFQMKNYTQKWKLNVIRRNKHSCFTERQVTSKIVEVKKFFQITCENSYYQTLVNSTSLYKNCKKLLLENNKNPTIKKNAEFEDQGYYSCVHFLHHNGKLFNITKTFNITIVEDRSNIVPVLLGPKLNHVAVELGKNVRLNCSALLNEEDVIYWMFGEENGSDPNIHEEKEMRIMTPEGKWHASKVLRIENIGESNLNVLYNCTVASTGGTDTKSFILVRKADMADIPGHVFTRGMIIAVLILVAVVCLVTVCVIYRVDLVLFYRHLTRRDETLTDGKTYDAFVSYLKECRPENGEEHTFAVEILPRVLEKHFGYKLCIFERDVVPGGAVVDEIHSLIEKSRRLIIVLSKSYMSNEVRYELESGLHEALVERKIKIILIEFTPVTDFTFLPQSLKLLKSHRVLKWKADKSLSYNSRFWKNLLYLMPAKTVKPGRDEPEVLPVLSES
T1 sequence (looked up) 2: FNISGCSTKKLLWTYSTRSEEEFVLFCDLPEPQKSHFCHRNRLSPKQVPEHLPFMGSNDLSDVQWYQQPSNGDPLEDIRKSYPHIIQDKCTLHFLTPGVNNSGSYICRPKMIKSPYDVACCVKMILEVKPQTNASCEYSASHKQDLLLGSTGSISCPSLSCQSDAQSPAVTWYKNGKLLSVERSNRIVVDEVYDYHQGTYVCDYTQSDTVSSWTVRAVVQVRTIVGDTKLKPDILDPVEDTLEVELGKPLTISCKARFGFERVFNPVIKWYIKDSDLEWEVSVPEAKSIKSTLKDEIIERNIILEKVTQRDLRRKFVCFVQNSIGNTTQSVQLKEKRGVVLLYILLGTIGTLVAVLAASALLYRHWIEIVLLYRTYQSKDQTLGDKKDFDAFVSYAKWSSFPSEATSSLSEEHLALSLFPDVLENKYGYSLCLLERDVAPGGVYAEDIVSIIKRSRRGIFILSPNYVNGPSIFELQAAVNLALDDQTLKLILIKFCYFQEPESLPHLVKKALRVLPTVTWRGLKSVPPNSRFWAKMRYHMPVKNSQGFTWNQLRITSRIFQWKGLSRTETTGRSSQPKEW

T2: IL-18 receptor (IL-18Rα and IL-18Rβ) on HEK-Blue IL-18 cells (UniProt Q13478 19-541; O95256 20-599, limits assumed)
T2 sequence (looked up) 1: T1 sequence (looked up) 1
T2 sequence (looked up) 2: T1 sequence (looked up) 2

B1: DGL336 (bispecific antibody, V domains shown)
V domain 1: EVQLLESGGGLVQPGGSLRLSCAASGRTFSKHAMGWFRQAPGKGLEFVSAIDWSGGSTYYADSVKGRFTISRDNSKNTVYLQMNSLRAEDTAVYYCAADSYTDYAQLWLPELESEYDYWGQGTLVTVSS
V domain 2: EVQLVESGGGLIQPGGSLRLSCAASGSISSRDTMGWYRQAPGKGREMVSVISSSGNTNYADSVLGRFTISRDNAKNTVYLQMNALRAEDTAVYKCYAHRTYGVDYWGQGTLVTVSS
B2: DGL346 (bispecific antibody)
chain 1: EVQLVESGGGLIQPGGSLRLSCAASGSISSRDTMGWYRQAPGKGREMVSVISSSGNTNYADSVLGRFTISRDNAKNTVYLQMNALRAEDTAVYKCYAHRTYGVDYWGQGTLVTVSSGGGSQVQLVESGGGLVQPGGSLRLSCAASGRTFSSYTMGWFRQAPGKGREFVSAISWSAGRTYYADSVKGRFTISRDNAKNTVYLQMNALRAEDTAVYYCAAEEAPDWAPIDCSGYGCLSLYDYWGQGTLVTVSDKTHTCPPCPAPEAAGAPSVFLFPPKPKDTLYITREPEVTCVVVDVSHEDPEVKFNWYVDGVEVHNAKTKPREEQYNSTYRVVSVLTVLHQDWLNGKEYKCKVSNKALPAPIEKTISKAKGQPREPQVCTLPPSRDELTKNQVSLSCAVKGFYPSDIAVEWESNGQPENNYKTTPPVLDSDGSFFLVSKLTVDKSRWQQGNVFSCSVMHEALHNHYTQKSLSLSPG
chain 2: DKTHTCPPCPAPEAAGAPSVFLFPPKPKDTLYITREPEVTCVVVDVSHEDPEVKFNWYVDGVEVHNAKTKPREEQYNSTYRVVSVLTVLHQDWLNGKEYKCKVSNKALPAPIEKTISKAKGQPREPQVYTLPPCRDELTKNQVSLWCLVKGFYPSDIAVEWESNGQPENNYKTTPPVLDSDGSFFLYSKLTVDKSRWQQGNVFSCSVMHEALHNHYTQKSLSLSPG
B3: DGL620 (bispecific antibody)
chain 1: EVQLLESGGGLVQPGGSLRLSCAASGRTFSKHAMGWFRQAPGKGLEFVSAIDWSGGSTYYADSVKGRFTISRDNSKNTVYLQMNSLRAEDTAVYYCAADSYTDYAQLWLPELESEYDYWGQGTLVTVSSCPPCPAPEAAGAPSVFLFPPKPKDTLYITREPEVTCVVVDVSHEDPEVKFNWYVDGVEVHNAKTKPREEQYNSTYRVVSVLTVLHQDWLNGKEYKCKVSNKALPAPIEKTISKAKGQPREPQVCTLPPSRDELTKNQVSLSCAVKGFYPSDIAVEWESNGQPENNYKTTPPVLDSDGSFFLVSKLTVDKSRWQQGNVFSCSVMHEALHNHYTQKSLSLSPG
chain 2: QLQLLESGGGLVQAGGSLRLSCAASRSITFSHNVMGWYRQAPGKGRELVSSIGSGGSTNYVDSVKGRFTISRDNSKKTLYLQMNSLRAEDTAVYYCGVVVGVYRGSLGQGTLVTVSSCPPCPAPEAAGAPSVFLFPPKPKDTLYITREPEVTCVVVDVSHEDPEVKFNWYVDGVEVHNAKTKPREEQYNSTYRVVSVLTVLHQDWLNGKEYKCKVSNKALPAPIEKTISKAKGQPREPQVYTLPPCRDELTKNQVSLWCLVKGFYPSDIAVEWESNGQPENNYKTTPPVLDSDGSFFLYSKLTVDKSRWQQGNVFSCSVMHEALHNHYTQKSLSLSPG

How the values were obtained:
Experiment in all cases: cell-based or functional assay
[1] = molecular target: T1, IL-18 receptor (IL-18Rα/IL-18Rβ) on …
[2] = molecular target: T2, IL-18 receptor (IL-18Rα and IL-18Rβ) on …
[3] = molecular target: T2, IL-18 receptor (IL-18Rα and IL-18Rβ) on …; remark: listed apart in the source

Calculated maximum induction of IFN-γ after 24 hours, donor 1 [1]	Calculated maximum induction of IFN-γ after 24 hours, donor 2 [1]	Calculated maximum induction of IFN-γ after 24 hours, donor 3 [1]	Calculated maximum induction of IFN-γ after 24 hours, donor 4 [1]	Calculated maximum induction of IFN-γ after 24 hours, donor 5 [1]	Calculated maximum induction of IFN-γ after 24 hours, donor 6 [1]	HEK-Blue: Abs 405 at 100 nM [2] [absorbance]	HEK-Blue: Fold over background [2] [fold]	EC50 (read off the curve) [3] [nM]	Binder
13000	620	17000	9300	1500	1300	0.9	4.9	–	B1
16000	1700	22000	17000	15000	3000	1.34	7.2	–	B2
16000	1300	22000	19000	15000	2400	1.87	10.1	~1	B3
